Reference: article PMC12132311 (bioRxiv, 2025)
Values joined by “and” are separate entries in the source; they are usually repeats but may differ in a detail not shown here. Identical values can stand only once. No end group written: not given here. *: point of attachment. FITC = O=C1OC2(c3ccc(O)cc3Oc3cc(O)ccc32)c2ccc(NC(=S)*)cc21; 5FAM = O=C1OC2(c3ccc(O)cc3Oc3cc(O)ccc32)c2ccc(C(=O)*)cc21; Ahx = NCCCCCC(=O)O

T1: FAM-labeled Hsp70 C-terminal peptide (5FAM-Ahx-SSGPTIEEVD)
T1 peptide: {5FAM-Ahx}-SSGPTIEEVD

T2: CHIP-optimized peptide CHIPopt (FITC-Ahx-LWWPD)
T2 peptide: {FITC-Ahx}-LWWPD

T3: Carboxyl terminus of Hsc70-interacting protein (CHIP/STUB1), human, WT, full length (human), Q9UNE7
T3 chain: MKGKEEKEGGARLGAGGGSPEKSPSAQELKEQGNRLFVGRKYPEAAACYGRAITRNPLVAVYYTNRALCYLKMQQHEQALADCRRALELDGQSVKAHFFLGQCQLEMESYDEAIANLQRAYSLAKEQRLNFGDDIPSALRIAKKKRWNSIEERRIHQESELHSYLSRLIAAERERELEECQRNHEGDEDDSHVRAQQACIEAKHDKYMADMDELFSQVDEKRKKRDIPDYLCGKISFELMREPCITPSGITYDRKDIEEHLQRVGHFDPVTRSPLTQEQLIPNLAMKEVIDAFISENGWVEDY

B1: Carboxyl terminus of Hsc70-interacting protein (CHIP/STUB1), human, WT, full length (enzyme)
chain: T3 chain
B2: Fab H1 (CHIP-targeting fragment antigen-binding antibody) (Fab, V domains shown)
VH: VQLVQSGSEVKKPGASVKVSCKASGYTFTNYGISWVRQAPGQGLEWMGWISAYNGNTNYAQNFQGRVTMTTDTSTKTAYMELRSLRSDDTAVYFCARSGYSGYDNNLGAFDIWGQGTMVTVSS
VL: SVVTQPPSVSAAPGQKVTISCSGTSSNIGNSYVTWYQQLPGAAPKLLIYDNNKRPSGIPDRFSGSKSGTSATLGITGLQTGDEADYYCATWDSSLTAGRVFGGGTRLTVL
B3: Fab 2D2 (CHIP-targeting fragment antigen-binding antibody) (Fab, V domains shown)
VH: QVQLQQSGPGLMKGGQTLSLTCAISGDSVSSNSAAWNWIRQSPSRGLEWLGRTYYRSKWYNEYAVSVKSRITINPDTSKNQFSLQLNSVTPEDTAVYYCARAVAASFDYWGQGTLVTVSS
VL: ETTLTQSPGTLSLSPGERATLSCRASQSVSSTFLAWYQQKPGQAPRLLIYGASRRATGIPDRFSGSGSGTDFTLTISRLEPEDFAVYYCQRYGATYTFGQGTKLEIK

What was measured:
[1] = target: T1, FAM-labeled Hsp70 C-terminal peptide …; assay: fluorescence polarisation
[2] = target: T2, CHIP-optimized peptide CHIPopt …; assay: fluorescence polarisation
[3] = target: T3, Carboxyl terminus of Hsc70-interacting …; assay: cryo-EM structure; conditions: remark: other sources report otherwise
[4] = target: T1, FAM-labeled Hsp70 C-terminal peptide …; assay: fluorescence polarisation
[5] = target: T2, CHIP-optimized peptide CHIPopt …; assay: fluorescence polarisation
Biotinylated CHIP = Biotinylated CHIP (Homo sapiens, UniProt Q9UNE7, biotin (site and way of biotinylation not stated)); assay: BLI
[6] = target: Carboxyl terminus of Hsc70-interacting protein (CHIP/STUB1), human, WT, full length (human, UniProt Q9UNE7); assay: cryo-EM structure

| Binder | apparent Kd with Fab 2D2 present [1] [nM] | apparent Kd with Fab 2D2 present [2] [nM] | stoichiometry N [3] | apparent Kd with Fab H1 present [4] [nM] | apparent Kd with Fab H1 present [5] [nM] | Kd (Biotinylated CHIP) [nM] | stoichiometry N [6] |
| --- | --- | --- | --- | --- | --- | --- | --- |
| B1 | 260 | 0.016 | 2 | 140 | 0.01 |  |  |
| B2 |  |  |  |  |  | 1100 | 1 Fab per CHIP dimer (printed as 2:1 CHIP:Fab) and 2 Fab per CHIP dimer (printed as 2:2 CHIP:Fab) |
| B3 |  |  |  |  |  | 40 | 1 Fab per CHIP dimer (printed as 2:1 CHIP:Fab) |
